# From patent publication US20220112288A1 (published 2022)
# Legend:
# [1] = molecular target: T1, human CD4 on cells (SKW3 cells; human PBMCs) (human, UniProt P01730 26-458); assay: FACS confirmation, supernatant on human PBMCs;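 also: flow cytometry with hybridoma supernatants incubated on human PBMCs for 30 min at 4 °C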
# T1 construct: whole, on cells; SKW3 CD4 knockout cells served as the negative cell line in the primary screen; also called hCD4; huCD4
# [2] = molecular target: T1, human CD4 on cells (SKW3 cells; human …); assay: FACS confirmation, supernatant on SKW3 cells; background gMFI 2500
# [3] = molecular target: T1, human CD4 on cells (SKW3 cells; human …); assay: FACS confirmation, supernatant on SKW3 cells; background gMFI 3300
# [4] = molecular target: T1, human CD4 on cells (SKW3 cells; human …); assay: FACS primary screen, hybridoma supernatant, SKW3 vs SKW3 CD4 KO cells;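 also: flow cytometry on mixed SKW3 and dye-labeled SKW3 CD4 knockout cells after 30 min at 4 °C with supernatant, ratio of binding signal on parental versus knockout cells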
# [5] = molecular target: T1, human CD4 on cells (SKW3 cells; human …); assay: FACS binning on SKW3 cells; competitor OKT4a; background 5000, max binding 35000
# [6] = molecular target: T1, human CD4 on cells (SKW3 cells; human …); assay: FACS binning on SKW3 cells; competitor OKT4-A488; background 2163, max binding 8200
# [7] = molecular target: T1, human CD4 on cells (SKW3 cells; human …); assay: FACS binning on SKW3 cells; competitor RPA-T4-PE-Dazzle 594; background 783, max binding 15000
# huCD4-HIS [8] = molecular target: T2, huCD4-HIS (human, UniProt P01730 26-390, limits assumed); assay: ELISA binning; competitor ibalizumab; 100 ng/mL huCD4-HIS, anti-HIS HRP; background 45, max binding 3000000
# T2 construct: the ELISA is not described in the text of this stretch; also called human CD4-HIS
# [9] = molecular target: T3, human CD4 on cells (SKW3 cells; human PBMCs) (human, UniProt P01730 26-458); assay: FACS confirmation, supernatant on human PBMCs, anti-mFc 647, CD4+ gate
# T3 construct: whole, on cells; SKW3 CD4 knockout cells served as the negative cell line for the WT vs KO ratios; also called hCD4; SKW3 WT
# [10] = molecular target: T3, human CD4 on cells (SKW3 cells; human …); assay: FACS confirmation, supernatant on SKW3 WT cells, anti-mFc 647 (Bkrd gMFI = 3300)
# [11] = molecular target: T3, human CD4 on cells (SKW3 cells; human …); assay: FACS confirmation, supernatant on human PBMCs, anti-mFc 647, percent of viable cells
# [12] = molecular target: T3, human CD4 on cells (SKW3 cells; human …); assay: FACS confirmation, supernatant on SKW3 WT cells, anti-hu Kappa FITC (Bkrd gMFI = 2500)
# [13] = molecular target: T3, human CD4 on cells (SKW3 cells; human …); assay: FACS primary screen, non-clonal hybridoma supernatant; SKW3 WT vs SKW3 CD4 KO cells, anti-mFc-647
# [14] = molecular target: T3, human CD4 on cells (SKW3 cells; human …); assay: SKW3 FACS binning; competitor OKT4-A488 added after supernatant (background 2163, max binding 8200)
# [15] = molecular target: T3, human CD4 on cells (SKW3 cells; human …); assay: FACS primary screen, non-clonal hybridoma supernatant; SKW3 WT vs SKW3 CD4 KO cells, anti-hKappa-FITC
# [16] = molecular target: T3, human CD4 on cells (SKW3 cells; human …); assay: SKW3 FACS binning; competitor RPA-T4-PE-Dazzle 594 added after supernatant (background 783, max binding 15000)
# huCD4-HIS [17] = molecular target: T4, huCD4-HIS (human, UniProt P01730 26-390, limits assumed); assay: ELISA binning; competitor Ibalizumab, 100 ng/mL huCD4-HIS, anti-HIS HRP detection (background 45, max binding 3000000)
# T4 construct: Named only in the head of the ELISA binning column; not shown: HIS tag
# [18] = molecular target: T3, human CD4 on cells (SKW3 cells; human …); assay: SKW3 FACS binning; competitor OKT4a added after supernatant, anti-hu A647 secondary (background 5000, max binding 35000)
"PBMCs CD4+ gate RL1 binding, anti-mFc 647 [1]","gMFI on SKW3 WT, anti-hu Kappa FITC [2] [gMFI]","gMFI on SKW3 WT, anti-mFc 647 [3] [gMFI]","SKW3 WT vs KO ratio, anti-hKappa-FITC [4]","SKW3 WT vs KO ratio, anti-mFc-647 [4]",OKT4a signal (anti-hu A647) with supernatant [5],OKT4-A488 signal with supernatant [6],RPA-T4-PE-Dazzle 594 signal with supernatant [7],Ibalizumab ELISA binning signal (huCD4-HIS [8]),CD4+ gate RL1 Binding [9],gMFI [10] [gMFI],gMFI [12] [gMFI],SKW3 WT vs KO anti-mFc-647 [13] [fold],OKT4 A488 signal in binning [14],SKW3 WT vs KO anti-hKappa-FITC [15] [fold],RPA-T4-PE-Dazzle 594 signal in binning [16],Ibalizumab ELISA binning signal (huCD4-HIS [17]),OKT4a anti-hu A647 signal in binning [18],Binder,PBMCs CD4+ percent bound of viable [1] [%],CD4+ Percent Bound of Viable [11] [%]
142000,3410,8910,1.1,2.2,41800,8720,10100,1.21e+06,–,–,–,–,–,–,–,–,–,"75110_14G10A (antibody, V domains shown, Tested as non-clonal AlivaMab Mouse Kappa hybridoma supernatant (detected with anti-mouse Fc gamma and anti-human kappa)) VH: EVQLVESGGGLVKPGGSLRLSCAASGFTFSSYSMNWVRQAPGKGLEWVSFISSSSSYIYYADSVKGRFTISRDNAKNSLYLQMNSLRAEDTAVYYCARERGDDYGDYEGAFDIWGQGTMVTVSS VL: not shown",32,–
–,–,–,–,–,–,–,–,–,200000,18700,5520,4.3,9750,2.6,19800,58200,9030,"75110_01L08A (antibody, V domains shown, Tested as non-clonal hybridoma supernatant (AlivaMab Mouse Kappa), detected with anti-mouse Fc and anti-human kappa) VH: QVQLQESGPGLVKPSETLSLTCTVSGGSISHYYWSWIRQPPGKGLEWIGYIHYSGTTNYNPSLKSRVTISVDTSKNQLSLKLRSVTAADTAVYYCARDQGFSSGGMDVWGQGTTVTVSS VL: not shown",–,27
–,–,–,–,–,–,–,–,–,275000,16500,5370,4.2,9230,2.2,4410,291000,44800,"75110_02I18A (antibody, V domains shown, Tested as non-clonal hybridoma supernatant (AlivaMab Mouse Kappa), detected with anti-mouse Fc and anti-human kappa) VH: EVQVVESGGGLVQPGGSLRLSCAASGFTFSSYDMHWVRQATGKGLEWVSTIGTAGDTYYPGSVKGRFTISRENAKNSLYLQMNSLRAGDTAVYYCARGGYYYYGMDVWGQGTTVTVSS VL: EIVLTQSPGTLSLSPGERATLSCRASQSVSSSYLAWYQQKPGQSPRLLIHGASSRATGIPDRVSGSGSGTDFTLTISRLEPEDFAVYYCQQYGSSPFTFGPGTKVDIK",–,29
72100,3160,5460,1.3,2.4,34800,8260,15300,2.37e+06,–,–,–,–,–,–,–,–,–,"75110_10O16A (antibody, V domains shown, Tested as non-clonal AlivaMab Mouse Kappa hybridoma supernatant (detected with anti-mouse Fc gamma and anti-human kappa); also called 75110_10016A) VH: EVQLVESGGGLVQPGGSLRLSCAASGFTFSNSDMHWVRQATGKGLEWVSTIGTAGDTYYPGSVKGRFTISRENAKNSLYLQMNSLRAGDTAVYYCARGGLYYYGMDVWGQGTTVTVSS VL: ENVLTQSPGTLSLSPGERATLSCRASQSVSSSYLAWYQQKPGQAPRLLIYGASSRATGIPDRFSGSGSGTDFTLTISRLEPEDFAVYYCHQFGSSPFTFGPGTKVDIK",23,–
276000,5300,16600,1.7,4.7,39200,8660,16000,1.98e+06,–,–,–,–,–,–,–,–,–,"75110_08K12A (antibody, V domains shown, Tested as non-clonal AlivaMab Mouse Kappa hybridoma supernatant (detected with anti-mouse Fc gamma and anti-human kappa)) VH: EVQLVESGGGLVQPGGSLRLSCAASGFTFSSYDMHWVRQATGKGLEWVSTIGTAGDTYYPGSVKGRFTISRENAENSLYLQMNSLRAGDTALYYCARGDYYYYGMDVWGQGTTVTVSS VL: EIVLTQSPGTLSLSPGERATLSCRASQSVSSTYLAWYQQKPGQAPRLLIYGASNRATGIPDRFSGSGSGTDFTLTISRLEPEDFAVYYCQQFGTSPFTFGPGTKVDIK",29,–
302000,6340,22900,2.2,5.9,43300,3330,14400,1.84e+06,–,–,–,–,–,–,–,–,–,"75110_01E08A (antibody, V domains shown, Tested as non-clonal AlivaMab Mouse Kappa hybridoma supernatant (detected with anti-mouse Fc gamma and anti-human kappa)) VH: EVQLVESGGGLVQPGGSLRLSCAASGFTFNNYDMHWVRQATGKGLEWVSTIGTAGDTYYPASVKGRFTIYRENAKNSLYLQMNSLRAGDTAVYYCARGGDYYYGMDVWGQGTTVTVSS VL: not shown",29,–
277000,7640,28600,3.8,14.9,29700,9080,16600,1.28e+06,–,–,–,–,–,–,–,–,–,"75110_14N19A (antibody, V domains shown, Tested as non-clonal AlivaMab Mouse Kappa hybridoma supernatant (detected with anti-mouse Fc gamma and anti-human kappa)) VH: QVQLQESGPGLVKPSETLSLTCTVSGGSISRYYWSWIRQPAGKGLEWIGRICTSENPNYNPALKSRVTMSVDTSKNQFSLKLSSVTAADTAVYYCARELERLNYYGMDVWGQGTTVTVSS VL: DIQMTQFPSSLSASVGDRVTITCQASQDISNYLNWYQQKPGKAPKLLIYDASNLESGVPSRFSGRGSGTDFTFTISSLQPEDFATFYCQQYDTLPITFGQGTRLEIK",29,–
292000,5580,20300,2.2,6.7,38400,9100,16400,2.2e+06,–,–,–,–,–,–,–,–,–,"75110_14P08A (antibody, V domains shown, Tested as non-clonal AlivaMab Mouse Kappa hybridoma supernatant (detected with anti-mouse Fc gamma and anti-human kappa)) VH: QVQLQESGPGLVKSSETLSLTCTDSGDSIRSYYWNWIRQPAGKGLEWIGRIYASGSTNYNPSLKSRVIMSADTSKNRFSLKLSSVTAADTAVYYCARDGGVGDSLDYWGQGTLVTVSS VL: DIVMTQTPLSLPVTPGEPASISCRSSQSLLDSDDGNTYLDWYLQKPGQSPQLLIYTLSYRASGVPDRFSGSGSGTDFTLKISRVEAEDVGVYYCMQRIEFPFTFGPGTKVDIK",30,–
250000,5000,15900,2.1,4.9,42900,3020,14200,1.98e+06,–,–,–,–,–,–,–,–,–,"75110_02N15A (antibody, V domains shown, Tested as non-clonal AlivaMab Mouse Kappa hybridoma supernatant (detected with anti-mouse Fc gamma and anti-human kappa)) VH: EVQLVESGGGLVQPGGSLRLSCAASGFTFSSYWMSWVRQAPGKGLEWVANINEDGNEKYYVDSVKGRFTISRDNAKNSLFLQMNSLRAEDTAVYFCAREGGQWLALDHWGQGALVTVSS VL: DIQMTQSPSSVSASVGDRVTITCRASQGISSWLAWYQQKPGKAPKFLISGASSLQSGVPSRFSGSGSGTDFTLTISSLQPEDFATYYCQQANSFPWTFGQGTKVEFK",27,–
